Data from the supplement of paper PMC12042874.
± gives the uncertainty stated by the source.

assay: amyloid nucleation score (Sup35N fusion, yeast selection) (log enrichment); library NNK3; higher = more nucleation; inactive = no reads after selection
Procedure, shortened: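 Growth for 7 days at 30°C on medium lacking adenine and uracil followed a 24-hour induction with 100 μM copper sulfate of psi-negative yeast expressing peptides of 20 random codons fused to Sup35N. Input and output plasmid inserts were sequenced with Illumina, and sequences with under 100 input reads were excluded. Nucleation score is the DiMSum log enrichment of output over input reads, centred on the mode score of non-aggregating sequences.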

| Substance | amyloid nucleation score |
| --- | --- |
| CIAMGTISFQFPVLMRYYLC | inactive |
| CILYLHIAALVLLI | -1.33 ± 2.5 |
| CINVFMQEPPPINIRWNCRE | 2.54 ± 0.061 |
| CITSNVMRSSRLKLV | inactive |
| CKCYYGTSDFCGVGFETASR | inactive |
| CKFCFSAIFSLLYNRIGAPQ | inactive |
| CKKGRLVGRSRCLVCWMCCM | -0.155 ± 0.96 |
| CKLCTFSKRLNLTFRMVASL | inactive |
| CKMLNYFLCT | 1.1 ± 0.13 |
| CKYLPLRNYGSCSPGYGKYV | inactive |
| CLFFKHLLLGDDVLLLTYLR | inactive |
| CLFGLGVEAKVFIYQGDDQS | inactive |
| CLFQIIVNTSYIGKFHTVLG | 1.88 ± 0.057 |
| CLFYIRS | inactive |
| CLGIGWFWVPWRLGVYSQMV | inactive |
| CLHEDCRMTADSLPSLRKDR | inactive |
| CLLPFTTGYDFFLHQIEGWG | inactive |
| CLLPVSVTLTASFLCQHVRY | 0.004 ± 0.75 |
| CLLVRTIMRVLYFWMES | inactive |
| CLNNVLLASPPNCAGNL | inactive |
| CLRSVDDWFKC | inactive |
| CLSLYL | inactive |
| CLTIHWTVFSGAARLSFIMT | inactive |

| Substance | amyloid nucleation score |
| --- | --- |
| CLVNWPMWENPWSPHFGSNY | inactive |
| CLVSTGYHVRCVIVFMTTQG | inactive |
| CLYRGGFSFYDFSGFCVLSS | inactive |
| CMGYRFC | inactive |
| CMIELRSR | inactive |
| CMLNRNFWVVYSHVGRRRL | inactive |
| CMLSMFSCCCFDSPRRYCH | 2.36 ± 0.051 |
| CMSDF | inactive |
| CMSRYVDSYFNLAYRDRFLW | 0.451 ± 0.47 |
| CMSTKTNFT | inactive |
| CNAYLAYARYIYTHGWPRSL | inactive |
| CNFDKTLRSHDDQLAVGITV | inactive |
| CNFERFALCDYLSVLFNFQR | 1.54 ± 0.13 |
| CNGLFIGPML | inactive |
| CNGLNRIVDLNWNMMSIMRS | inactive |
| CNKYMKVCLGMGKVQTKNGV | inactive |
| CNVLEKYTLE | inactive |
| CNVNTLIFGRESNSSEHKHW | 1.83 ± 0.081 |
| CNVTLSSTYEK | inactive |
| CNYSVVFCCNFWDYYLKECA | 2.5 ± 0.06 |
| CPRDNVSIVKWWLAYRDSHA | inactive |
| CQIEILLPLDVLY | 1.06 ± 0.09 |
| CQLRGEFDSVAVNNVCIAML | inactive |

| Substance | amyloid nucleation score |
| --- | --- |
| CQRPWNRTRR | inactive |
| CQVGRKRLLYVFTGYK | inactive |
| CQVWFTYYYLLGSTNDSMAR | inactive |
| CRCMTR | inactive |
| CRCPSYMFHA | 0.703 ± 0.17 |
| CRFKGCWYSRTLRRRRSVIV | inactive |
| CRFSGCNESLGWKVGSTLVM | inactive |
| CRGTWDNDAVGRVDRNSRKS | inactive |
| CRIYCLLPISMIGSCSFIVH | inactive |
| CRLANHLEIAVAVTSYEGED | inactive |
| CRNESLACSKMSPSQRRSYT | inactive |
| CRTQMPSIFDL | inactive |
| CRVEVAICHRPLCSKVTLDG | inactive |
| CSGIIRNMLWGV | inactive |
| CSGQVQ | inactive |
| CSIPFVWEIHHM | inactive |
| CSKNRQSELRALGSYI | inactive |
| CSLQNVTVGLLHSQVVSRWE | inactive |
| CSLTCWSVVRVFQYEILRE | inactive |
| CSLTKAVFQRQPLRRSKGTK | inactive |
| CSLYNLDRVTWTG | 0.219 ± 0.41 |
| CSPGTSCFGIKPRSSLSTTI | inactive |
| CSRLAQWFMLVSF | inactive |

| Substance | amyloid nucleation score |
| --- | --- |
| CSRWMWPENYRFSSEVPWYI | inactive |
| CSTISVTLALV | inactive |
| CSWVGAMFVQWNLPAPTEGI | 0.341 ± 0.37 |
| CTDRRVRWGYGFKFRFGHGD | inactive |
| CTLQYWGKIIPNERSRSRIV | inactive |
| CTLRTVCHTGLLWVTFHRQY | 0.675 ± 0.18 |
| CTSCILYFLLIYYHYNSS | inactive |
| CTSTLMEFSFSYEWSNGCCS | inactive |
| CTVLKYFLRYRRSHDL | inactive |
| CVAAV | inactive |
| CVAKK | inactive |
| CVEAEDNFVLLKEGHAAWDV | inactive |
| CVEVY | inactive |
| CVFKTNVNGLMEEVLSGFKY | inactive |
| CVFPCMFLEFTMTDMKLYSS | inactive |
| CVGVCKNLNRWFH | inactive |
| CVLWYCCYTQLSMQKCNSRM | inactive |
| CVNKFLSVPSIDSEDFCYLV | inactive |
| CVPWWLNMPVLDCTLWNSSV | inactive |
| CVTVNIELLTWITACGNFTL | 1.62 ± 0.075 |
| CVVGDPSGVK | 0.62 ± 0.13 |
| CVWAYLRLHGKWAF | 0.598 ± 0.34 |
| CVWILSQLG | -0.797 ± 1.9 |

| Substance | amyloid nucleation score |
| --- | --- |
| CWWCCATGTHSSSYIGRGVH | 0.844 ± 0.24 |
| CYDDRHENHHYGE | inactive |
| CYEPVAGVFCMRIGLTVVGN | inactive |
| CYFRVAHVLDSRILSRPGML | inactive |
| CYIVGVVGLSTDWFMSGHSD | 0.035 ± 0.9 |
| CYMADNVLVGFTFVGIQEMK | inactive |
| CYSVDRDV | inactive |
| CYYTKVNVSS | 0.021 ± 0.26 |
| DAGELNILI | inactive |
| DAHNRASLSYVPSYYVSFTA | inactive |
| DAIRQTSHMKLRSSYMQARR | inactive |
| DCCKFFLKDSRSRSFSWSIY | 1.66 ± 0.08 |
| DCDRILLV | inactive |
| DCERVFSYMRKDQVPPVTLS | inactive |
| DCFLLSTIVALYRDYRYIGT | inactive |
| DCGKRSTTINFAWNGAVQPD | 1.04 ± 0.18 |
| DCMSHLLF | inactive |
| DCSFMPTLYLGPTTFFFWHL | 2.25 ± 0.064 |
| DCTSILELVGGARPTHSGLE | inactive |
| DCVYSSPCGVALIDLGAGLK | inactive |
| DCYKRSVMLKAARSWVNRSL | inactive |
| DDCIIRAGWDLLQR | inactive |
| DDDLHWWKYRCVACDSLWEI | inactive |

| Substance | amyloid nucleation score |
| --- | --- |
| DDGFYMSVGIVSWFC | 0.843 ± 0.13 |
| DDRVVPVLYQTCSAVRR | inactive |
| DEMLHGCPDRVPNLGWY | inactive |
| DERKNSIDSR | inactive |
| DEYTSNVVSNFFEIRLWFFI | inactive |
| DFARFIPFRPDFNFWGRLTG | inactive |
| DFHSLKNDF | inactive |
| DFMWLKGLNPSTLSLPWD | inactive |
| DFTLTPMWRHFEGFNKVAWG | inactive |
| DFWLHCGDK | inactive |
| DFYRSEQGDWSNLHSC | inactive |
| DGVALFNVVRFVVGIDILLI | inactive |
| DHLQVHYCGRHVLGAKKFAR | inactive |
| DHLSVWVSRLDTINCLREVG | inactive |
| DHLWIPPWLYAPAMLWSWML | inactive |
| DICEIRTTIRAC | inactive |
| DIDRRQRVMHSPMKAWEEVG | -0.045 ± 0.98 |
| DIHVKNCVVCMYSG | 2.44 ± 0.057 |
| DIIYTFHHAVNRLNKIFSV | inactive |
| DIVANYQMM | inactive |
| DIVTTHVGKSLG | inactive |
| DKGVVPL | inactive |
| DKMIGWGDWSSLY | inactive |

| Substance | amyloid nucleation score |
| --- | --- |
| DKTYYYRDDSLV | inactive |
| DLFKCGRGHVIFVLSRLLIS | -0.459 ± 1.1 |
| DLGHQMVVRRHVLFLICCCN | inactive |
| DLIGYSEEV | 0.449 ± 0.19 |
| DLISEKEQEPGRD | 0.406 ± 0.21 |
| DLKTWSMLSFFGMYATYLIK | inactive |
| DLRCHGYC | inactive |
| DLRSITMCWCIIPTGRCVVA | inactive |
| DLSMGNCEVVGLESSTTICK | inactive |
| DLTDNVFYWSRNTIDEVRVR | inactive |
| DLTNEMQVCVNV | -0.17 ± 0.88 |
| DLWAIGWGPFRVCSLLPWPL | inactive |
| DLYCMPLAAVLFGGGC | inactive |
| DMGLYLFFIYLCGVRDLLST | inactive |
| DMIVNYCTAQRSFVSIVSIK | inactive |
| DMWKFTRLLFFCDSKRCSAD | inactive |
| DNLTVTFRCLHAYLGGLDFD | inactive |
| DNQFICLFVVEIGIVYDSYA | inactive |
| DNSCVMMKTGGRYFELFRVV | inactive |
| DNSSLSMK | inactive |
| DNVSKSSIHTTLVLASFLCS | 1.55 ± 0.11 |
